Measurements as given in US20050048527, “Endonuclease-substrate complexes” (Third Wave Technologies, Inc., published 2005).
Positions count from the first letter of the chain named.

T1: Afu FEN1 (Archaeoglobus fulgidus, UniProt O29975 SEQ:1-336)
T1 sequence: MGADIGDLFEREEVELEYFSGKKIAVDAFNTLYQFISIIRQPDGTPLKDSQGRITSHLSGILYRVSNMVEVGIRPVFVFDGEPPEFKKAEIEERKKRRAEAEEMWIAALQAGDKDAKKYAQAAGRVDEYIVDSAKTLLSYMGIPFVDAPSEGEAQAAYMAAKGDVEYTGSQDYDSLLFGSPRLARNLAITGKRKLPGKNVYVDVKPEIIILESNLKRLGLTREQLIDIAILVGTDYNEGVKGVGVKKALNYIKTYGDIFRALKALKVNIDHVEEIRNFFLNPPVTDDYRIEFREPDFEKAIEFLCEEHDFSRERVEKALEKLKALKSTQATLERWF

T2: Pfu Y33F FEN1 (Pyrococcus furiosus, UniProt O93634 SEQ:1-340, Y33F)
T2 sequence: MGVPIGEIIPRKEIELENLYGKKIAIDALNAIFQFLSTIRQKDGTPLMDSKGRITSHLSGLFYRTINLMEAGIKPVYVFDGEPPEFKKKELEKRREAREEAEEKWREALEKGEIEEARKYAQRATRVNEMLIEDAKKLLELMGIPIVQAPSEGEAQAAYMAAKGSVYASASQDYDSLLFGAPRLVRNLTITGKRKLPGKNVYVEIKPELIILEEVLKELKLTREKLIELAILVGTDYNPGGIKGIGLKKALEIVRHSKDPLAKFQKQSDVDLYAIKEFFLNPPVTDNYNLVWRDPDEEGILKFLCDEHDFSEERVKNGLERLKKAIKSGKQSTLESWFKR

T3: Pfu3M FEN1 (Pyrococcus furiosus, UniProt O93634 SEQ:1-340)
T3 chain: T2 sequence with F33Y, E82K, E103L, E110A

T4: Pho4M FEN1 (Pyrococcus horikoshii, UniProt O50123 SEQ:1-343)
T4 chain: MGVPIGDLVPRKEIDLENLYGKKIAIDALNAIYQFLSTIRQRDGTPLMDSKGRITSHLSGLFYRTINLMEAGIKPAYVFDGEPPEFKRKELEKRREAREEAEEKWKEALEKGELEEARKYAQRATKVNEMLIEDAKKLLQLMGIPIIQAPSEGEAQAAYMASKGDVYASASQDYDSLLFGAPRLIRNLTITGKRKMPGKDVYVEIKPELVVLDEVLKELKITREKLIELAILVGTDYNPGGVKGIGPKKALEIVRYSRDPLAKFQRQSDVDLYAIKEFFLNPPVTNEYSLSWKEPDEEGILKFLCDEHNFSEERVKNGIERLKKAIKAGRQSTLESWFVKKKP

T5: Pho3M FEN1 (Pyrococcus horikoshii, UniProt O50123 SEQ:1-343)
T5 chain: T4 chain with E113N

B1: INVADER substrate 594-12-1/203-91-1 (structured_DNA)
DNA 1: TTTTTCACGGCAGTTGGTGCGCCTCGGAACGAGGCGCACA
DNA 2: TTTTCAACTGCCGTGA
B2: X-structure 203-81-2/203-91-2 (structured_DNA)
DNA 1: TTTTCAACTGCTTAGAGAATCTAAGCAGTTGGTGCGCCTCGTTAA
DNA 2: AACGAGGCGCACATT
modifications: 3'-NH2 on first strand

Legend:
Assay in all cases: cleavage_in_vitro; rate vs Pfu FEN1
Afu FEN1 = biological target: T1, Afu FEN1
Experimental: (§1) For the evaluation of chimeric enzymes, standard tests were performed to measure the performance and specificity of the enzymes. […] 10 μl reactions are run at 59 C for between 5 to 60 minutes depending on the enzyme. Reactions are stopped by the addition of 10 μl of 95% formamide, 0.02% methyl violet. 1 μl of the mixture is run on a denaturing 20% acrylamide gel and electrophoresed for 15 minutes or until good separation is achieved between cleaved and uncleaved probe. The gels are scanned using an FMBIO fluorescent gel scanner and the bands are quantified with FMBIOAnalysis software. Cleavage rates are determined from the percent probe cleaved. Cleavage rate for the INVADER substrate is defined as the number of probe molecules cleaved per target molecule per minute. In Table 5, below, the cleavage rates for the mutant enzymes are compared to the cleavage rates for unmodified Pfu FEN1 enzyme on the INVADER assay and X-structure substrates.
(§2) The X-structure substrate is used to determine the amount of background cleavage an enzyme will carry out in an INVADER reaction. It mimics the structure created by uncut primary probe and secondary FRET cassette in the INVADER squared reaction. […] 10 μl reactions are run at 59 C for between 3 to 30 minutes depending on the enzyme. Reactions are stopped by the addition of 10 μl of 95% formamide, 0.02% methyl violet. 1 μl of the mixture is run on a denaturing 20% acrylamide gel and electophoresed for 15 minutes or until good separation is achieved between cleaved and uncleaved probe. The gels are scanned using an FMBIO fluorescent gel scanner and the bands are quantified with FMBIOAnalysis software. Cleavage rates are determined from the percent probe cleaved.

Pfu Y33F FEN1 = biological target: T2, Pfu Y33F FEN1; settings: label: 5'-biotin target; 5'-TET probe; hairpin target-INVADER with overlapping probe flap
Experimental: as §1, §2

Pfu3M FEN1 = biological target: T3, Pfu3M FEN1
Experimental: as §1, §2

Pho4M FEN1 = biological target: T4, Pho4M FEN1
Experimental: as §1, §2

Pho3M FEN1 = biological target: T5, Pho3M FEN1
Experimental: as §1, §2

[1] = label: 5'-biotin target, 5'-TET probe, hairpin target-INVADER with overlapping probe flap

Row | Binder | cleavage rate (Afu FEN1; [1]) | cleavage rate (Pfu Y33F FEN1) | cleavage rate (Pfu3M FEN1; [1]) | cleavage rate (Pho4M FEN1; [1]) | cleavage rate (Pho3M FEN1; [1]) | cleavage rate (Afu FEN1; label: 5'-TET, X-structure) | cleavage rate (Pfu3M FEN1; label: 5'-TET, X-structure) | cleavage rate (Pho4M FEN1; label: 5'-TET, X-structure) | cleavage rate (Pho3M FEN1; label: 5'-TET, X-structure)
1 | B1 | 0.52 | 0.96 | 1.8 | 1.3 | 0.95 |  |  |  | 
2 | B2 |  |  |  |  |  | 0.5 | 4.9 | 2.2 | 6.6
